Measurements from patent publication US7176008B2, “Process for producing activated thrombin-activatable fibrinolysis inhibitor” (Merck & Co., Inc., priority 2002, dated 2007).

Substrate: CSCC[C@H](NC(=O)[C@H](CC(C)C)NC(=O)CNC(=O)CCCCCNC(=O)CCCCCNC(=O)CCCC[C@@H]1SC[C@@H]2NC(=O)N[C@@H]21)C(=O)N[C@H](C(=O)NCC(=O)NCC(=O)N[C@H](C(=O)N[C@H](C(=O)N[C@@H](CCCNC(=N)N)C(=O)O)C(C)C)C(C)C)C(C)C
Test: purified protein, by the assay type
Conditions: other: room temperature
Description: A typical assay (75 μL) contained each studied carboxypeptidase and selected inhibitors (in 5 μL DMSO) in HBSP buffer in 96-well round bottom microtiter plates (Costar 3365 plates). Enzyme and compound were preincubated for 15–30 minutes at room temperature. […] The final substrate concentration was 15 to 50 nM. The amount of carboxypeptidase activity was titrated to result in 40,000–50,000 electrochemiluminescence counts (typically 0.02–0.1 nM, 0.01 nM, 5 nM, and 0.15–0.65 nM. for TAFIa, CPB, CPN and CPM, respectively). […] Ruthenium-labeled G2-10 (25 μL of 0.063 μg/mL) and streptavidin magnetic beads (25 μL of 0.2 mg/mL, Dynabeads M-280) were added to the quenched solution and shaken at 300 rpm for >1 hr. G2-10 antibody and beads were prepared in a BSA diluent containing 150 mM phosphate, pH 7.8, 150 mM NaCl, 3% (w/v) BSA (protease free fraction V) and 0.05% NaN3. The volume was brought to 250 μL with HBSP and read on an Igen 96-well electrochemiluminescence plate reader (M8 Analyzer) at 620 nm. […]
All measurements were performed in at least duplicates and the inhibition constants (Ki) were determined by the equation below wherein Vo and Vi are activity in the absence and presence of inhibitors, respectively. […]
Hydrolysis of substrate was measured in HBSP (pH 7.4) for TAFIa, CPB, CPM, and CPM. […]

Protein	Km	Km (HBSP pH 7.4)
CPM (Homo sapiens) (protein) LDFNYHRQEGMEAFLKTVAQNYSSVTHLHSIGKSVKGRNLWVLVVGRFPKEHRIGIPEFKYVANMHGDETVGRELLLHLIDYLVTSDGKDPEITNLINSTRIHIMPSMNPDGFEAVKKPDCYYSIGRENYNQYDLNRNFPDAFEYNNVSRQPETVAVMKWLKTETFVLSANLHGGALVASYPFDNGVQATGALYSRSLTPDDDVFQYLAHTYASRNPNMKKGDECKNKMNFPNGVTNGYSWYPLQGGMQDYNYIWAQCFEITLELSCCKYPREEKLPSFWNNNKASLIEYIKQVHLGVKGQVFDQNGNPLPNVIVEVQDRKHICPYRTNKYGEYYLLLLPGSYIINVTVPGHDPHITKVIIPEKSQNFSALKKDILLPFQGQLDSIPVSNPSCPMIPLYRNLPDHS	38 µM	
TAFIa (Homo sapiens) (protein) ASASYYEQYHSLNEIYSWIEFITERHPDMLTKIHIGSSFEKYPLYVLKVSGKEQAAKNAIWIDCGIHAREWISPAFCLWFIGHITQFYGIIGQYTNLLRLVDFYVMPVVNVDGYDYSWKKNRMWRKNRSFYANNHCIGTDLNRNFASKHWCEEGASSSSCSETYCGLYPESEPEVKAVASFLRRNINQIKAYISMHSYSQHIVFPYSYTRSKSKDHEELSLVASEAVRAIEKISKNTRYTHGHGSETLYLAPGGGDDWIYDLGIKYSFTIELRDTGTYGFLLPERYIKPTCREAFAAVSKIAWHVIRNV		8 µM
CPB (Homo sapiens) (protein) ATGHSYEKYNKWETIEAWTQQVATENPALISRSVIGTTFEGRAIYLLKVGKAGQNKPAIFMDCGFHAREWISPAFCQWFVREAVRTYGREIQVTELLDKLDFYVLPVLNIDGYIYTWTKSRFWRKTRSTHTGSSCIGTDPNRNFDAGWCEIGASRNPCDETYCGPAAESEKETKALADFIRNKLSSIKAYLTIHSYSQMMIYPYSYAYKLGENNAELNALAKATVKELASLHGTKYTYGPGATTIYPAAGGSDDWAYDQGIRYSFTFELRDTGRYGFLLPESQIRATCEETFLAIKYVASYVLEHLY		12 µM
